{
  "source": "patent US20110086797",
  "proteins": {"B1": {"name": "PrkC Ser/Thr kinase of B. subtilis (protein)", "chain": "MLIGKRISGRYQILRVIGGGGMANVYLAEDIILDREVAIKILRFDYANDNEFIRRFRREAQSASSLDHPNIVSIYDLGEEDDIYYIVMEYVEGMTLKEYITANGPLHPKEALNIMEQIVSAIAHAHQNQIVHRDIKPHNILIDHMGNIKVTDFGIATALSSTTITHTNSVLGSVHYLSPEQARGGLATKKSDIYALGIVLFELLTGRIPFDGESAVSIALKHLQAETPSAKRWNPSVPQSVENIILKATAKDPFHRYETAEDMEADIKTAFDADRLNEKRFTIQEDEEMTKAIPIIKDEELAKAAGEKEAEVTTAQENKTKKNGKRKKWPWVLLTICLVFITAGILAVTVFPSLFMPKDVKIPDVSGMEYEKAAGLLEKEGLQVDSEVLEISDEKIEEGLMVKTDPKADTTVKEGATVTLYKSTGKAKTEIGDVTGQTVDQAKKALKDQGFNHVTVNEVNDEKNAGTVIDQNPSAGTELVPSEDQVKLTVSIGPEDITLRDLKTYSKEAASGYLEDNGLKLVEKEAYSDDVPEGQVVKQKPAAGTAVKPGNEVEVTFSLGPEKKPAKTVKEKVKIPYEPENEGDELQVQIAVDDADHSISDTYEEFKIKEPTERTIELKIEPGQKGYYQVMVNNKVVSYKTIEYPKDE"}},
  "target": "elongation factor G (EF-G) of B. subtilis, P80868",
  "sequence (P80868 2-692)": "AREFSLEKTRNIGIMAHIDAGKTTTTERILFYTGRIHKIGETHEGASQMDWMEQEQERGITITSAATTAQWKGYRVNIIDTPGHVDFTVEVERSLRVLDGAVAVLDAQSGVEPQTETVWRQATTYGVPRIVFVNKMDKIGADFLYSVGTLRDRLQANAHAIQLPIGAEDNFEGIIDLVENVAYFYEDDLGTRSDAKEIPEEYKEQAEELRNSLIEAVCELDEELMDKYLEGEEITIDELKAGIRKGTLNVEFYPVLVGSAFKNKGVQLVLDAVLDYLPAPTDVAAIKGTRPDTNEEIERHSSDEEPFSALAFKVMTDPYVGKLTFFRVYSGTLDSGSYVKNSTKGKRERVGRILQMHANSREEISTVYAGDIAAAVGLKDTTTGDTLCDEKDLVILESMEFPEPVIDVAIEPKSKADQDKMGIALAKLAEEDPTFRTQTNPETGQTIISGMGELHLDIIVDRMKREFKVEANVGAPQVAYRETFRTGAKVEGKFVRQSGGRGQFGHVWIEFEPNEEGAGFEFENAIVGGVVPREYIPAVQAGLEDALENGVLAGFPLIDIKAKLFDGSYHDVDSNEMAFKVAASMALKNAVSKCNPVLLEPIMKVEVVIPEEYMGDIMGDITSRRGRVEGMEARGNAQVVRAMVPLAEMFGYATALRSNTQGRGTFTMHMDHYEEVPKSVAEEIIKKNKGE",
  "data": [
    {"protein": "B1", "values": [
      {"measurement": "EF-G phosphorylation (immunoprecipitation with anti-EF-G, western blot with anti-phosphothreonine antibody)", "result": "EF-G (as identified by probing the same fractions with the α-EF-G) phosphorylation increased following exposure to cell free supernatant (FIG. 24D). In contrast, no change in phosphorylation was observed in spores lacking PrkC."}
    ]}
  ]
}
